Blank lines part the entries; values can stand above or below the molecule they belong to.
Tests used:
[1] = molecular target: human HER4 expressed on HEK293 cells (human) (UniProt Q15303); experiment: flow cytometry on HEK293 HER4 overexpressing cells, 10 µg/ml antibody
[2] = molecular target: human HER3 expressed on cells (human) (UniProt P21860); experiment: flow cytometry on HEK293T HER3 O/E cells, '10 ug' antibody as printed (10 µg/ml by paragraph 872), FITC anti-Fc secondary
[3] = molecular target: FcRn (human) (UniProt P55899); experiment: Bio-Layer Interferometry, determined as described in Example 7
[4] = molecular target: FcgRIIIA (F158) (human) (UniProt P08637); experiment: as above
[5] = molecular target: T1, moFcRn (mouse) (UniProt Q61559); experiment: as above
T1 sequence (receptor, looked up): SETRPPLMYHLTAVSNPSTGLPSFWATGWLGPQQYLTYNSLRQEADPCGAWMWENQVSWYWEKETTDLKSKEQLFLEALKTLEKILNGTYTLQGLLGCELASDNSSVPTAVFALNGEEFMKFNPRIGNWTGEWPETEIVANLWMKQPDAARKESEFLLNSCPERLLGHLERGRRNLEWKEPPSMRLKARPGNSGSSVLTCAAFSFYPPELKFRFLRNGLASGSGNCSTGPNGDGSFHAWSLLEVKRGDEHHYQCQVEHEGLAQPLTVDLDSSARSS
T1 sequence (looked up): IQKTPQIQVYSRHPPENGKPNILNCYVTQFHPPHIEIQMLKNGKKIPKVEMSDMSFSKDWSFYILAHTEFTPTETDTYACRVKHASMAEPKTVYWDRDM

[6] = molecular target: moFcgRIV (mouse); experiment: as above
[7] = molecular target: His-tagged FcγRIIIa (V158) (UniProt P08637); experiment: Bio-Layer Interferometry, determined as described in Example 7; receptor row FcgRIIIA (V158)
[8] = molecular target: human HER3 expressed on cells (human) (UniProt P21860); experiment: flow cytometry, HEK293 cells overexpressing human HER3, 20 ug/ml antibody, FITC anti-Fc secondary; same antibody on WT HEK293: 1.91
[9] = molecular target: human HER3 expressed on cells (human) (UniProt P21860); experiment: flow cytometry, HEK293 cells overexpressing human HER3, 20 ug/ml antibody, FITC anti-Fc secondary; same antibody on WT HEK293: 8.15
[10] = molecular target: human HER3 expressed on cells (human) (UniProt P21860); experiment: flow cytometry, HEK293 cells overexpressing human HER3, 20 ug/ml antibody, FITC anti-Fc secondary; isotype on WT HEK293: 0.07
[11] = molecular target: T2, mouse HER3 polypeptide (mouse, UniProt Q61526 20-641); experiment: ELISA, plate coated with 0.1 ug/ml target polypeptide, antibody serially diluted
T2 construct: also called M. musculus HER3 homologue
T2 sequence (Q61526 20-641 limits assumed): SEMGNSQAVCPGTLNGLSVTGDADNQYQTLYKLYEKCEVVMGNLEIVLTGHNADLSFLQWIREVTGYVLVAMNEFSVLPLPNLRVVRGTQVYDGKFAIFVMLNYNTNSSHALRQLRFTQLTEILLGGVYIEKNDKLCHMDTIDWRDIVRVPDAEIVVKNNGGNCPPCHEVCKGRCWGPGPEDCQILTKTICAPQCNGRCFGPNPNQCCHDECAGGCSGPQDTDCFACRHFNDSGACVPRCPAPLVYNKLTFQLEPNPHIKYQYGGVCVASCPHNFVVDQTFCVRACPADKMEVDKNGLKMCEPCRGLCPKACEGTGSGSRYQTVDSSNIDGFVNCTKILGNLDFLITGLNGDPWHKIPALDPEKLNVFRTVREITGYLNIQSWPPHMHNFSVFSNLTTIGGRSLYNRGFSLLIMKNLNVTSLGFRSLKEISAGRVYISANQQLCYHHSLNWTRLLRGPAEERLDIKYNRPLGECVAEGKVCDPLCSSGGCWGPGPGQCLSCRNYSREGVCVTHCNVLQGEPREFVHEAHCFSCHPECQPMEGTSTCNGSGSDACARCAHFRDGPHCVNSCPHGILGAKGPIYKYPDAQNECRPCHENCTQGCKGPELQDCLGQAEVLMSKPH
Method: (§1) ELISAs were used to determine the binding specificity of the antibodies. […] The antibodies were also analysed for their ability to bind to human EGFR and human HER2 (Sino Biological Inc., China).
(§2) ELISAs were carried out according to standard protocols. Briefly, 96-well plates (Nunc, Denmark) were coated with 0.1 μg/ml of target polypeptide in phosphate-buffered saline (PBS) for 16 h at 4° C. After blocking for 1 h with 1% BSA in Tris buffer saline (TBS) at room temperature, the anti-HER3 antibody was serially diluted with the highest concentration being 10 μg/ml, and added to the plate. Post 1 h incubation at room temperature, plates were washed three times with TBS containing 0.05% Tween 20 (TBS-T) and were then incubated with a HRP-conjugated […] antibody (Life Technologies, Inc., USA) for 1 h at room temperature. After washing, plates were developed with colorimetric detection substrate 3,3′,5,5′-tetramethylbenzidine (Turbo-TMB; Pierce, USA) for 10 min.

[12] = molecular target: T3, rat HER3 polypeptide (rat, UniProt Q62799 20-643, limits assumed); experiment: as above
T3 construct: also called R. norvegicus HER3 homologue
T3 sequence (Q62799 20-643 limits assumed): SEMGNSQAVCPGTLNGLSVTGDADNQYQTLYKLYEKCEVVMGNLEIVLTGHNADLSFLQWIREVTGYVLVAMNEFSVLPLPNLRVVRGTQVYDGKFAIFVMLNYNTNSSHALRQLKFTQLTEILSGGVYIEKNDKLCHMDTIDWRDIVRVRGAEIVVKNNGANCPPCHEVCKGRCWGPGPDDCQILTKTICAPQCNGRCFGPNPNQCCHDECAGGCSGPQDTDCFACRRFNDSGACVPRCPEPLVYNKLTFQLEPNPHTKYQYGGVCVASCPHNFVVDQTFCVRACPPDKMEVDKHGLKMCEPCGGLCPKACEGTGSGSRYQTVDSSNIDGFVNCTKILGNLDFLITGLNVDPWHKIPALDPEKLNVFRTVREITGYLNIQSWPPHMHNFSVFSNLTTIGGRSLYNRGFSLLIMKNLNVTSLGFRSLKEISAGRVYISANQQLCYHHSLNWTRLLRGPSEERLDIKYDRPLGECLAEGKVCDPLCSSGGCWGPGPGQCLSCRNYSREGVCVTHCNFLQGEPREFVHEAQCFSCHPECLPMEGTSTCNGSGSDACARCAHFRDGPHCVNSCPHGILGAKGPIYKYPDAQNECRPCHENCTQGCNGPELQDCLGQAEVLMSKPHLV
Method: as §1, §2

[13] = molecular target: T4, human EGFR polypeptide, recombinant (human, UniProt P00533 25-645); experiment: as above
T4 construct: also called human HER1 (EGFR); human EGFR-His
Method: as §1, §2

[14] = molecular target: human HER2 polypeptide, recombinant (His-tagged HER2 protein) (human, UniProt P04626 23-652); experiment: as above
Method: as §1, §2

[15] = molecular target: FcgRIIA (H167) (human); experiment: Bio-Layer Interferometry, determined as described in Example 7
Chain of FcgRIIA (H167) (human) (P12318 34-217): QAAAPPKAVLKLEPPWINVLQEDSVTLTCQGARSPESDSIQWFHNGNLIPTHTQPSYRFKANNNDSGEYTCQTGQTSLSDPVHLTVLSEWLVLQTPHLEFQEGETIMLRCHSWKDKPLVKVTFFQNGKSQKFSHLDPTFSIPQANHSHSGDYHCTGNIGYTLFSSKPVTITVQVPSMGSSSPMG

[16] = molecular target: FcgRIIA (R167) (human); experiment: as above
[17] = molecular target: FcgRIIB (human); experiment: as above
Chain of FcgRIIB (human) (P31994 43-217): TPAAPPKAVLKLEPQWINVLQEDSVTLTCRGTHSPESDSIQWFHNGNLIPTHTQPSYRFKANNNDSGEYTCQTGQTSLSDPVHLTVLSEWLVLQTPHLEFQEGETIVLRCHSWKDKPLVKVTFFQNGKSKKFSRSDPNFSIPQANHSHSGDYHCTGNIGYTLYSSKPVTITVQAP

[18] = molecular target: human HER3 polypeptide, recombinant (His-tagged human HER3) (human) (UniProt P21860); experiment: BLI (Octet QK384), His-tagged human HER3 on anti-Penta-HIS tips, saturating antibody LJM-716 (400 nM), then competing antibody MM-121 (300 nM)
[19] = molecular target: human HER3 polypeptide, recombinant (His-tagged human HER3) (human) (UniProt P21860); experiment: plate ELISA dimerisation assay: human EGFR-His coated, HER3-biotin 4 µg/ml and NRG 0.1 µg/ml constant, antibody titrated; blocked interaction EGFR:HER3
[20] = molecular target: T5, human HER3 polypeptide, recombinant (His-tagged human HER3) (human, UniProt P21860 20-643, biotinylated in the assays of paragraph 766 and paragraph 908); experiment: ELISA on human HER3 polypeptide coated at 0.1 ug/ml
T5 construct: Bought protein (Sino Biological for the ELISAs); also called HER3 His; HER3-biotin

Molecule: hIgG1 Isotype (antibody)
% Positive for HER4 [1]: 0.07%
% Parent (HER3 positive gate) [2]: 0.18%

Molecule: Isotype (antibody)
% Parent (HER3 positive) [10]: 0.12%

B3: anti-HER3 clone 10D1_c90 IgG1 (antibody, V domains shown)
VH: QVQLQESGPGLVKPSQTLFLTCTVSGYSITSGYSWHWIRQHPGKGLEWIGSIRYSGGTDYNPSLKSLVTISVDTSKNQFSLKLSSVTAADTAVYYCARMTTAPWYPFDYWGQGTTVTVSS
VL: DIQMTQSPSSVSASVGDRVTFTCKASQIVGSNVAWYQQKPGKAPEPLIYSASYLYSSVPSRFSGSGSGTEFTMTISSLEPEDFATYYCQQYTTHPLTFGPGTKVEIKR
notes: Humanised 10D1 variant, human IgG1 / kappa
EC50 (read off the curve) [20]: ~6 ng/mL

The remaining lines, values ahead:

% Positive for HER4 [1]: 0.27%
Kd [3]: 16.5 nM
Kd [4]: 5380 nM
Kd [5]: 12.8 nM
Kd [6]: 701 nM
Kd [7]: 705 nM
% Parent (HER3 positive gate) [2]: 74.4%
% Parent (HER3 positive) [8]: 99.5%
% Parent (HE3 Positive) [9]: 98.7%
Molecule: anti-HER3 antibody clone LJM716

binding result [11]: binds
binding result [12]: binds
binding result [13]: binds
binding result [14]: binds
B1: anti-HER3 clone 4-35-B4 IgG1 (antibody, V domains shown)
VH: EVQLQQSGAELVKPGASVKLSCTASGFNIKDTYIHWVKQRPDQGLEWIGKIIDPANGNTNYDPKFQGKATITADTSSNTAYLQLSSLSSEDTAVYFCARGLHWGQGTTLTVSS
VL: DIVLTQSPASLAVSLGQRATISCRASKSVSTSGYSYMHWYQQKPGQPPKLLIYLASNLESGVPARFSGSGSGTDFTLNIHPVEEEDAATYYCQHSRELPYTFGGGTKLEIKR
notes: Human IgG1 / kappa chimeric

% Positive for HER4 [1]: 8.73%
Kd [3]: 11.5 nM
Kd [15]: 222 nM
Kd [16]: 243 nM
Kd [17]: 1440 nM
Kd [5]: 6.69 nM
Kd [7]: 7050 nM
cell of the competition table (name and unit of the value not given) [18]: 0.693
IC50 [19]: 54.2 nM
B2: anti-HER3 antibody MM-121 (seribantumab) (antibody, INN chains, looked up, human IgG2)
heavy: EVQLLESGGGLVQPGGSLRLSCAASGFTFSHYVMAWVRQAPGKGLEWVSSISSSGGWTLYADSVKGRFTISRDNSKNTLYLQMNSLRAEDTAVYYCTRGLKMATIFDYWGQGTLVTVSSASTKGPSVFPLAPCSRSTSESTAALGCLVKDYFPEPVTVSWNSGALTSGVHTFPAVLQSSGLYSLSSVVTVPSSNFGTQTYTCNVDHKPSNTKVDKTVERKCCVECPPCPAPPVAGPSVFLFPPKPKDTLMISRTPEVTCVVVDVSHEDPEVQFNWYVDGVEVHNAKTKPREEQFNSTFRVVSVLTVVHQDWLNGKEYKCKVSNKGLPAPIEKTISKTKGQPREPQVYTLPPSREEMTKNQVSLTCLVKGFYPSDIAVEWESNGQPENNYKTTPPMLDSDGSFFLYSKLTVDKSRWQQGNVFSCSVMHEALHNHYTQKSLSLSPG
light: QSALTQPASVSGSPGQSITISCTGTSSDVGSYNVVSWYQQHPGKAPKLIIYEVSQRPSGVSNRFSGSKSGNTASLTISGLQTEDEADYYCCSYAGSSIFVIFGGGTKVTVLGQPKAAPSVTLFPPSSEELQANKATLVCLVSDFYPGAVTVAWKADGSPVKVGVETTKPSKQSNNKYAASSYLSLTPEQWKSHRSYSCRVTHEGSTVEKTVAPAECS
